# From US9872831B2 (ALFASIGMA S.P.A., priority 2011, dated 2018)
# Legend:
# [1] = Immunohistochemistry of lung sections with anti-avidin antibody after aerosol exposure; type: in vivo, Balb/c mice; settings: 24 hours after aerosol exposure
# Method: The lungs were removed and fixed in formalin and paraffin embedded. Serial sections obtained by means of a microtome were processed and incubated with a HRP-conjugated rabbit anti-avidin antibody (GeneTex, USA) and then with DAB substrate.
# [2] = Uptake of i.v. 111In-ST2210 in lung and non target organs 24 h after inhalation exposure
# Method: Twenty Sprague Dawley rats were divided in three different groups.
# All rats were sacrificed 2 hours after the i.v. administration of ^111In-ST2210, and samples of blood, spleen, kidney, liver, stomach, brain, trachea, and tissue samples of different portions of lung were collected, weighed and analyzed with the use of a gamma-counter (Perkin Elmer). Data were expressed as the % of injected dose/gram of tissue (% ID/g).
# [3] = Linkage of instilled oxidized avidin to surgically lesioned bladder, PET with i.v. 68-Ga-ST2210; type: in vivo, pig; settings: 1 h instillation, PET 4 h after 68-Ga-ST2210 i.v.
# Method: Anesthetised female pig of about 40 kg was subjected to surgery to generate two 2 cm superficial lesions on the bladder wall. […] Bladder was then washed with saline and 0.5 μg 68-Ga-ST2210 was i.v. administered. After 4 hours the pig was subjected to PET.
# [4] = Chemical integrity of oxidized avidin after nebulisation (HPLC); type: physicochemical; settings: 3.0 mg/ml in 100 mM sodium acetate pH 5.5, nebulised 1 hour at room temperature
# Description: The particle size of the protein solution midst was 5 μm. The nebulised solution was recovered in a falcon tube and analyzed by HPLC.
# [5] = system: A431 cells; assay: Inhibition of proliferation, Cell Titer Glow assay; type: cell-based, Human; settings: oxidized avidin alone compared with medium only (data not shown)
# Method: Proliferation inhibition was measured by Cell Titer Glow assay, Promega.
# [6] = PET imaging of i.v. 64Cu-ST2210 after nebulised oxidized avidin; type: in vivo, Balb/c mice; settings: 64Cu-ST2210 1 μg i.v. 24 h after aerosol; PET 4 hours after
# Method: After 24 hours, they received an intravenous 1 μg dose of ^64Cu-ST2210. ^64Cu-ST2210 distribution was examined by PET imaging 4 hours after. […] Kidneys, bladder are visible in both groups of mice. This observation is consistent with the physiological elimination of ST2210 at that time point.
# [7] = Biodistribution of i.v. 111In-ST2210 after nebulised oxidized avidin; type: in vivo, Balb/c mice; settings: nebulised 1 hour (about 90 mg/kg); 111In-ST2210 i.v. 24 h later; sacrifice after 2 or 24 hours
# Method: A biodistribution experiment aimed at determining the lung uptake selectivity and stability of ^111In-ST2210 was conducted. […] Twenty four hours after, all mice received ^111In-ST2210 intravenously (i.e., 1 μg in 0.2 ml of saline), and after further 2 or 24 hours, the animals were sacrificed by CO2 asphyxia. The lung and non target organs were collected weighed and counted in a gamma counter.
substance,measurement,setting,value
"Oxidized avidin: chemically oxidized avidin according to example 1 of WO2009016031, about 8 to 15 aldehyde moieties",distribution of oxidized avidin in the lung,[1],homogenous in all lung compartments
same,localisation of oxidized avidin in lung sections,[1],presence of oxidized avidin at broncho/epithelial level down to terminal bronchioles
same,111In-ST2210 % ID/g Blood,"[2]; Blood, 2 h after i.v. 111In-ST2210, 24 h after inhalation (about 10 mg/kg)",0.012 ± 0.004 % ID/g
same,111In-ST2210 % ID/g Kidney,"[2]; Kidney, 2 h after i.v. 111In-ST2210, 24 h after inhalation",0.414 ± 0.033 % ID/g
same,111In-ST2210 % ID/g Liver,"[2]; Liver, 2 h after i.v. 111In-ST2210, 24 h after inhalation",0.051 ± 0.005 % ID/g
same,111In-ST2210 % ID/g Lung dx (caudal lobe),"[2]; Lung dx (caudal lobe), 2 h after i.v. 111In-ST2210, 24 h after inhalation",0.055 ± 0.009 % ID/g
same,"111In-ST2210 % ID/g Lung dx (cranial, middle and accessory lobe)","[2]; Lung dx (cranial, middle and accessory lobe), 2 h after i.v. 111In-ST2210, 24 h after inhalation",0.055 ± 0.011 % ID/g
same,111In-ST2210 % ID/g Lung sn,"[2]; Lung sn, 2 h after i.v. 111In-ST2210, 24 h after inhalation",0.053 ± 0.008 % ID/g
same,111In-ST2210 % ID/g Lung,"[2]; Lung, 2 h after i.v. 111In-ST2210, 24 h after inhalation",0.054 ± 0.009 % ID/g
same,111In-ST2210 % ID/g Spleen,"[2]; Spleen, 2 h after i.v. 111In-ST2210, 24 h after inhalation",0.032 ± 0.002 % ID/g
same,111In-ST2210 % ID/g Stomach,"[2]; Stomach, 2 h after i.v. 111In-ST2210, 24 h after inhalation",0.276 ± 0.246 % ID/g
same,111In-ST2210 % ID/g Trachea,"[2]; Trachea, 2 h after i.v. 111In-ST2210, 24 h after inhalation",0.029 ± 0.007 % ID/g
same,organ linkage of nebulised oxidized avidin,[2]; lung versus trachea,bound to the lung but not to the trachea
same,binding to bladder tissue,[3]; intact bladder tissue,completely inert
same,binding to bladder tissue,[3]; region subjected to surgery,enabled the binding of oxidized avidin
same,HPLC elution profile pre and post nebulisation,[4],same elution profile
same,effect on cell proliferation,[5],did not affect cell proliferation
same,64Cu-ST2210 PET signal in the lungs,[6],presence of a radioactive signal in the lungs
same,uptake of 111In-ST2210 in the lung,[7],specific and significant uptake
